Target: the molecule itself
Assay: AUC

| Protein | stoichiometry N |
| --- | --- |
| KQLEKELKQLEKELQAIEKQLAQLQWKAQARKKKLAQLKKKLQA (designed binder) [APH fused to maltose binding protein (MBP)] | 2 |

Target: the molecule itself
Assay: AUC
Remark: another data set of the same source

| Protein | stoichiometry N |
| --- | --- |
| KQLKQIEKRLKQIEKRLQAKEWEKAQLRKELQALRKKLAQLRE (designed binder) [APHvi (APH4) fused to maltose binding protein (MBP)] | 2 |
| KEEKQIEKELKQIEKELQAIEWRLAQLRKRLQALRKRKAQKRE (designed binder) [APHi fused to maltose binding protein (MBP)] | > 2 |
| KRKKQKRKRAKQLRKRLQALEWQLAQIRKELQAAEKEEAQIEE (designed binder) [APHiii (APH3) fused to maltose binding protein (MBP)] | 2 |
| KEKKQLRKELKQLEKELQALRWRLAQIEKRLQAIRKRLAQKEE (designed binder) [APHiv fused to maltose binding protein (MBP)] | > 2 |

Target: the molecule itself
Assay: AUC
Remark: another data set of the same source

| Protein | MW (global fit)/MW (calc., expected dimer mass) |
| --- | --- |
| KQLKQIEKRLKQIEKRLQAKEWEKAQLRKELQALRKKLAQLRE (designed binder) [APHvi (APH4) fused to maltose binding protein (MBP)] | 0.96 |
| KEEKQIEKELKQIEKELQAIEWRLAQLRKRLQALRKRKAQKRE (designed binder) [APHi fused to maltose binding protein (MBP)] | 1.7 |
| KRKKQKRKRAKQLRKRLQALEWQLAQIRKELQAAEKEEAQIEE (designed binder) [APHiii (APH3) fused to maltose binding protein (MBP)] | 0.94 |
| KEKKQLRKELKQLEKELQALRWRLAQIEKRLQAIRKRLAQKEE (designed binder) [APHiv fused to maltose binding protein (MBP)] | 1.23 |

From publication PMC4277747 (Journal of the American Chemical Society, 2014)
